Source: patent CN114805590A (SUNSHINE GUOJIAN PHARMACEUTICAL SHANGHAI CO LTD, dated 2022)

Experiments:
[1] = target: T1, HER2-DI-DIII-his (Homo sapiens (Human), UniProt P04626 23-510); assay: ELISA, plate coated with HER2-DI-DIII-his, detection with HRP-anti human IgG Fc
T1 construct: also called HER2-ECD-DI-DIII

[2] = target: T2, HER2-DI-DIII-V483A/D480A/E485A (Homo sapiens (Human), UniProt P04626 23-513); assay: ELISA, plate coated with HER2-DI-DIII-V483A/D480A/E485A
T2 chain: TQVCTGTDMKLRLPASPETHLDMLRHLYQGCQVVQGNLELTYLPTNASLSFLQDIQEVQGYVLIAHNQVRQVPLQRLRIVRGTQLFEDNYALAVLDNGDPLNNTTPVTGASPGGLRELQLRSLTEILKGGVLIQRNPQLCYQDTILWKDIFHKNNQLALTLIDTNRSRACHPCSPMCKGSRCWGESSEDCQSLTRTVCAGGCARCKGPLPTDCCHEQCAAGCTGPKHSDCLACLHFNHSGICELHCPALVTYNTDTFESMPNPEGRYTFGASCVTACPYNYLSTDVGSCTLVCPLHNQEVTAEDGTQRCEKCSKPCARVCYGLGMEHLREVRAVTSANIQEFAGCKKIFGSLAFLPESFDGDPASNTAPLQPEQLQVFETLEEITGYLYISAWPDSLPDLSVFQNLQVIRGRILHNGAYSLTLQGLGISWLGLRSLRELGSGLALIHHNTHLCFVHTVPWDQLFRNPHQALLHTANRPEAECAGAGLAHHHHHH

[3] = target: T3, HER2 (on HER2高表达细胞株 N87 / BT474) (UniProt P04626 23-1255, limits assumed); assay: cell-based or functional assay
[4] = target: T4, HER2-DI-DIII-L295P/H296N (Homo sapiens (Human), UniProt P04626 23-510); assay: ELISA, plate coated with HER2-DI-DIII-L295P/H296N
T4 construct: also called HER2-DI-DIII-L295/H296N

[5] = target: T3, HER2 (on HER2高表达细胞株 N87 / BT474); assay: cell-based or functional assay; remark: listed apart in the source

B1: 抗HER2抗体612 (antibody, V domains shown)
VH: QVQLVQSGAEVKKPGASVKVSCKGSGYTFTDYAIHWVRQAPGQSLEWIGVFSIYYENINYNQKFKGRATMTVDKSTSTAYMELRSLRSDDTAVYYCARRDGGTINYWGQGTLVTVSS
VL: DVVMTQSPLSLPVTLGQPASISCRSSQSLVHSNGNTYLHWYQQRPGQSPRLLIYKVSNRFSGVPDRFSGSGSGTDFTLKISRVEAEDVGVYFCSQSTHIPWTFGQGTKVEIK
notes: No visible text gives the full heavy chain; also called 19H6-Hu
EC50 [1]: 43 pM | binding result [2]: no binding (tested: 最高浓度为10nM) | 最大抑制率(%), N87细胞增殖 (CCK8) [3]: 41.8% | EC50 [4]: 27 pM | 最大抑制率(%), BT474细胞增殖 (CCK8) [5]: 47.1%
